Measurements taken from paper PMC4479245, “The HDAC6/APOBEC3G complex regulates HIV-1 infectiveness by inducing Vif autophagic degradation” (Retrovirology, 2015).

T1: HA-dm-HDAC6 (in vitro translated) (human, UniProt Q9UBN7 1-1215, H216A | H611A)
T1 construct: also called dead-mutant (dm) HDAC6; H216A/H611A; not shown: HA, N-terminal, kept
T1 sequence (looked up): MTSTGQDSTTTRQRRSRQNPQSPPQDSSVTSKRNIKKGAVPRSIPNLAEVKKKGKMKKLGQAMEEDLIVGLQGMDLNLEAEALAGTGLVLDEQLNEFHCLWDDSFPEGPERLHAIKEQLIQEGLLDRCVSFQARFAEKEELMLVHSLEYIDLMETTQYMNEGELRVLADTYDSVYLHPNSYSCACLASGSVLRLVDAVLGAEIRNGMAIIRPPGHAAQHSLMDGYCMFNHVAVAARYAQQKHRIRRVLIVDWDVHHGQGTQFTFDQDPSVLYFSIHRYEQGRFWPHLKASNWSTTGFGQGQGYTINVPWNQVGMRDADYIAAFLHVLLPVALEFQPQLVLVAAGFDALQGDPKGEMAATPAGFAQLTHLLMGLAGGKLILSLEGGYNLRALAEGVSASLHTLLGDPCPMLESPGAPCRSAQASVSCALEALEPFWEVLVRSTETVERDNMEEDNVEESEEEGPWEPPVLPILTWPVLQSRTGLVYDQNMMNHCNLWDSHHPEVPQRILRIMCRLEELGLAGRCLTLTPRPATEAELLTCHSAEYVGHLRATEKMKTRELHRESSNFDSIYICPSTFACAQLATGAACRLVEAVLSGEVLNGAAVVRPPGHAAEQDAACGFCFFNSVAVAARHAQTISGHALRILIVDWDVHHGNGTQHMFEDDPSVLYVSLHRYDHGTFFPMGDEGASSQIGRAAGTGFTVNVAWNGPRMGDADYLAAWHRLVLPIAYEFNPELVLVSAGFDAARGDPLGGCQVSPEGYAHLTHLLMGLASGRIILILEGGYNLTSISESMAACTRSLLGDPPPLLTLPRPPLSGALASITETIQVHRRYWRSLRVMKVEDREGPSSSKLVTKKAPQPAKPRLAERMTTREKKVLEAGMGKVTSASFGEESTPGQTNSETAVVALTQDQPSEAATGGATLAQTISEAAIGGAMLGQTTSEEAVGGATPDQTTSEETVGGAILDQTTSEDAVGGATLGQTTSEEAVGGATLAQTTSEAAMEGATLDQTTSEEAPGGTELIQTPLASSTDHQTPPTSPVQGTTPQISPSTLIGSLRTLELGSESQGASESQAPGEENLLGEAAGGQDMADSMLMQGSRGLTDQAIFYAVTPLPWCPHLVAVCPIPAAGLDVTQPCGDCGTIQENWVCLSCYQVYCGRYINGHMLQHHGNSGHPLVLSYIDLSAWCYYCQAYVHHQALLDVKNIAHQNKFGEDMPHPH

T2: HA-wt-HDAC6 (in vitro translated) (human, UniProt Q9UBN7 1-1215)
T2 construct: also called HA-HDAC6; source: in vitro translated (rabbit-reticulocytes system), purified on anti-HA agarose; not shown: HA, N-terminal, kept
T2 sequence (looked up): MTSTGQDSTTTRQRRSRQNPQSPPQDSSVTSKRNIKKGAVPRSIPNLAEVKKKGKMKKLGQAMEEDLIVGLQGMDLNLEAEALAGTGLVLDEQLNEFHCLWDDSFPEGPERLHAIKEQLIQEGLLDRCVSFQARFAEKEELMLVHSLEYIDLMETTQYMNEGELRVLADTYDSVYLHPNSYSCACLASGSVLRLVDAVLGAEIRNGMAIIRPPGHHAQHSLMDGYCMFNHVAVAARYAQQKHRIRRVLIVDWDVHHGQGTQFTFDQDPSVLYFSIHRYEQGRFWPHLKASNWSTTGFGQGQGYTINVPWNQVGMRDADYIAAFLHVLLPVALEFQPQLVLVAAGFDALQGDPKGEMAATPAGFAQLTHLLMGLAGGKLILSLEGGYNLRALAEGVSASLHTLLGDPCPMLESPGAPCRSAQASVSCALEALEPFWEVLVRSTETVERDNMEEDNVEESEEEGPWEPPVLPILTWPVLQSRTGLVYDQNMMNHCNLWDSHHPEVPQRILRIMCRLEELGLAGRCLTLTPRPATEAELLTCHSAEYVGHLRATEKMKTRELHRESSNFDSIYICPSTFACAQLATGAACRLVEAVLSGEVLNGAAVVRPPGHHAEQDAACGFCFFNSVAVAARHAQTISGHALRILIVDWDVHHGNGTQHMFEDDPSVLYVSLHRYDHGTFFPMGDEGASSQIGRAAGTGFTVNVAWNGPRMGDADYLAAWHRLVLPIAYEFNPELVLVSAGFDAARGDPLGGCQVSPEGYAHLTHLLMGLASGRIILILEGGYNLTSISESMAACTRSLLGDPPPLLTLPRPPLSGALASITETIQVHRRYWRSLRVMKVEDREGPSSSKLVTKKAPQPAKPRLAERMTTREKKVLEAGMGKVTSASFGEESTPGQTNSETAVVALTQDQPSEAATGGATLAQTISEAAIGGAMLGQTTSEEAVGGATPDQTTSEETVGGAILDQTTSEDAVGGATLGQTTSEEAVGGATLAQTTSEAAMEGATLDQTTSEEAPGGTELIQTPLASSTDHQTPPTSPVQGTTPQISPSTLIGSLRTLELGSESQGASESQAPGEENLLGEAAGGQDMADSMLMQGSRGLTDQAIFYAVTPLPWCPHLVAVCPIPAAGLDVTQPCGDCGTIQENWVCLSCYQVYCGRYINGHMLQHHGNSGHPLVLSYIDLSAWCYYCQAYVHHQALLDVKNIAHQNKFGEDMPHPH

B1: GST-A3G (natural protein, human, UniProt Q9HC16 1-384, looked up)
chain: MKPHFRNTVERMYRDTFSYNFYNRPILSRRNTVWLCYEVKTKGPSRPPLDAKIFRGQVYSELKYHPEMRFFHWFSKWRKLHRDQEYEVTWYISWSPCTKCTRDMATFLAEDPKVTLTIFVARLYYFWDPDYQEALRSLCQKRDGPRATMKIMNYDEFQHCWSKFVYSQRELFEPWNNLPKYYILLHIMLGEILRHSMDPPTFTFNFNNEPWVRGRHETYLCYEVERMHNDTWVLLNQRRGFLCNQAPHKHGFLEGRHAELCFLDVIPFWKLDLDQDYRVTCFTSWSPCFSCAQEMAKFISKNKHVSLCIFTARIYDDQGRCQEGLRTLAEAGAKISIMTYSEFKHCWDTFVDHQGCPFQPWDGLDEHSQDLSGRLRAILQNQEN
notes: also called wt-A3G; GST-A3G (wt); source: E. coli BL21-DE3, purified on GSH-Sepharose
B2: GST-A3G-C97A (natural protein, human, UniProt Q9HC16 1-384, looked up)
chain: MKPHFRNTVERMYRDTFSYNFYNRPILSRRNTVWLCYEVKTKGPSRPPLDAKIFRGQVYSELKYHPEMRFFHWFSKWRKLHRDQEYEVTWYISWSPATKCTRDMATFLAEDPKVTLTIFVARLYYFWDPDYQEALRSLCQKRDGPRATMKIMNYDEFQHCWSKFVYSQRELFEPWNNLPKYYILLHIMLGEILRHSMDPPTFTFNFNNEPWVRGRHETYLCYEVERMHNDTWVLLNQRRGFLCNQAPHKHGFLEGRHAELCFLDVIPFWKLDLDQDYRVTCFTSWSPCFSCAQEMAKFISKNKHVSLCIFTARIYDDQGRCQEGLRTLAEAGAKISIMTYSEFKHCWDTFVDHQGCPFQPWDGLDEHSQDLSGRLRAILQNQEN
notes: source: E. coli BL21-DE3, purified on GSH-Sepharose
B3: GST-A3G-D128K (natural protein, human, UniProt Q9HC16 1-384, looked up)
chain: MKPHFRNTVERMYRDTFSYNFYNRPILSRRNTVWLCYEVKTKGPSRPPLDAKIFRGQVYSELKYHPEMRFFHWFSKWRKLHRDQEYEVTWYISWSPCTKCTRDMATFLAEDPKVTLTIFVARLYYFWKPDYQEALRSLCQKRDGPRATMKIMNYDEFQHCWSKFVYSQRELFEPWNNLPKYYILLHIMLGEILRHSMDPPTFTFNFNNEPWVRGRHETYLCYEVERMHNDTWVLLNQRRGFLCNQAPHKHGFLEGRHAELCFLDVIPFWKLDLDQDYRVTCFTSWSPCFSCAQEMAKFISKNKHVSLCIFTARIYDDQGRCQEGLRTLAEAGAKISIMTYSEFKHCWDTFVDHQGCPFQPWDGLDEHSQDLSGRLRAILQNQEN
notes: as for B2
B4: GST-Vif (natural protein)
chain: not shown
notes: as for B2

Assays:
[1] = target: T1, HA-dm-HDAC6 (in vitro translated); test: pull-down; 3 μg GST fusion protein immobilised on glutathione-Sepharose beads, 2 μg purified in vitro translated HA-tagged protein, overnight in RIPA buffer at 4°C, three washes; anti-HA blot; details: both partners purified
[2] = target: T2, HA-wt-HDAC6 (in vitro translated); test: as above; details: both partners purified

Binder | binding result [1] | binding result [2]
B1 | binds | binds
B2 | binds | binds
B3 | binds | binds
B4 | – | binds
